The experiment has as its system HEK293FT cells transfected with TF library. In words: Screening of TF condensates based on fluorescent puncta. Conditions: Figure 1B numerical data; TF library screen, one value per transcriptional factor. Type of experiment: cell-based. The method, boiled down:
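TF plasmids (final 1.6 μg/ml) reverse-transfected with PEI (4.8 μg/ml) into HEK293FT cells; after 60 h, cells cultured ±glucose for 12 h, fixed in 4% PFA and immunostained for Flag or GAL4 tags with Alexa 488 secondaries. Puncta scored by automated imaging of 50 random fields per well.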

B1: CJUN (protein, UniProt P05412 1-331, looked up)
Transcription factor Jun: MTAKMETTFYDDALNASFLPSESGPYGYSNPKILKQSMTLNLADPVGSLKPHLRAKNSDLLTSPDVGLLKLASPELERLIIQSSNGHITTTPTPTQFLCPKNVTDEQEGFAEGFVRALAELHSQNTLPSVTSAAQPVNGAGMVAPAVASVAGGSGSGGFSASLHSEPPVYANLSNFNPGALSSGGGAPSYGAAGLAFPAQPQQQQQPPHHLPQQMPVQHPRLQALKEEPQTVPEMPGETPPLSPIDMESQERIKAERKRMRNRIAASKCRKRKLERIARLEEKVKTLKAQNSELASTANMLREQVAQLKQKVMNHVNSGCQLMLTQQLQTF
Regarding B1, the “Z score of condensed fraction” value stood at 2.466.

B2: ZXDA (protein, UniProt P98168 1-799, looked up)
Zinc finger X-linked protein …: MEIPKLLPARGTLQGGGGGGIPAGGGRVHRGPDSPAGQVPTRRLLLPRGPQDGGPGRRREEASTASRGPGPSLFAPRPHQPSGGGDDFFLVLLDPVGGDVETAGSGQAAGPVLREEAKAGPGLQGDESGANPAGCSAQGPHCLSAVPTPAPISAPGPAAAFAGTVTIHNQDLLLRFENGVLTLATPPPHAWEPGAAPAQQPRCLIAPQAGFPQAAHPGDCPELRSDLLLAEPAEPAPAPAPQEEAEGLAAALGPRGLLGSGPGVVLYLCPEALCGQTFAKKHQLKMHLLTHSSSQGQRPFKCPLGGCGWTFTTSYKLKRHLQSHDKLRPFGCPAEGCGKSFTTVYNLKAHMKGHEQENSFKCEVCEESFPTQAKLGAHQRSHFEPERPYQCAFSGCKKTFITVSALFSHNRAHFREQELFSCSFPGCSKQYDKACRLKIHLRSHTGERPFLCDFDGCGWNFTSMSKLLRHKRKHDDDRRFMCPVEGCGKSFTRAEHLKGHSITHLGTKPFVCPVAGCCARFSARSSLYIHSKKHLQDVDTWKSRCPISSCNKLFTSKHSMKTHMVKRHKVGQDLLAQLEAANSLTPSSELTSQRQNDLSDAEIVSLFSDVPDSTSAALLDTALVNSGILTIDVASVSSTLAGHLPANNNNSVGQAVDPPSLMATSDPPQSLDTSLFFGTAATGFQQSSLNMDEVSSVSVGPLGSLDSLAMKNSSPEPQALTPSSKLTVDTDTLTPSSTLCENSVSELLTPAKAEWSVHPNSDFFGQEGETQFGFPNAAGNHGSQKERNLITVTGSSFLV
With B2, the “Z score of condensed fraction” value was -0.8138.

B3: AATF (protein, UniProt Q9JKX4 2-526, looked up)
Protein AATF: AAPQPLALQLEQLLNPRPREADPEADPEEATRARVIDRFDEGEEEKDDLAVSSIRKLAPVSLLDTDKRYSGKTTSRKAWKEDHWEQALPSSSDNEASDEGGSEDGDSEGLGLEEISEDVDEDLEDNKISDEGGSEDGDSEGLGLEEFSEDVEEDLEGEDEEDREEDRNSEDDGVVAAFSSVKVSEEVEKGRAVKNQIALWDQLLEGRIKLQKALLTTNQLPQPDVFPVFKDKGGPEFASALKNSHKALKALLRSLVDLQEELLFQYPDTRHIVNGAKPNTESEEISSEDDELVGEKKKQRKAPPKRKLEMEDYPSFMAKRFADFTIYRNHTLQKWHDKTKLASGKLGKGFGAFERSILTQIDHIMMDKERLLRRTQTKRSAYRVLGKPEPVPEPVAETLPGEPETLPQGPANAHLRDLDEEIFDDDDFYHQLLRELIERKTSSLDPNDQVAMGRQWLAIQKLRSKIRKKVDRKASKGRKLRFHVLSKLLSFMAPIDHTAMSDDARTELFRSLFGQLNPPDADRGK
On to B3, for which the “Z score of condensed fraction” value is on record as -0.6879.

B4: CEBPD (protein, UniProt P49716 2-269, looked up)
CCAAT/enhancer-binding …: SAALFSLDGPARGAPWPAEPAPFYEPGRAGKPGRGAEPGALGEPGAAAPAMYDDESAIDFSAYIDSMAAVPTLELCHDELFADLFNSNHKAGGAGPLELLPGGPARPLGPGPAAPRLLKREPDWGDGDAPGSLLPAQVAACAQTVVSLAAAGQPTPPTSPEPPRSSPRQTPAPGPAREKSAGKRGPDRGSPEYRQRRERNNIAVRKSRDKAKRRNQEMQQKLVELSAENEKLHQRVEQLTRDLAGLRQFFKQLPSPPFLPAAGTADCR
Turning to B4, the “Z score of condensed fraction” value is -0.4872.

B5: CEBPG (protein, UniProt P53567 1-150, looked up)
CCAAT/enhancer-binding …: MSKISQQNSTPGVNGISVIHTQAHASGLQQVPQLVPAGPGGGGKAVAPSKQSKKSSPMDRNSDEYRQRRERNNMAVKKSRLKSKQKAQDTLQRVNQLKEENERLEAKIKLLTKELSVLKDLFLEHAHNLADNVQSISTENTTADGDNAGQ
As for B5, the “Z score of condensed fraction” value turned out to be 0.2566.

B6: ZSCAN10 (protein, UniProt Q96SZ4 1-780, looked up)
Zinc finger and SCAN …: MLGESVPAAVEQEQLGEVKLEEEEAVSPEDPRRPESRLRPEVAHQLFRCFQYQEDMGPRASLSRLRELCGHWLRPALHTKKQILELLVLEQFLSVLPPHLLGRLQGQPLRDGEEVVLLLEGIHREPSHAGPLDFSCNAGKSCPRADVTLEEKGCASQVPSHSPKKELPAEEPSVLGPSDEPPRPQPRAAQPAEPGQWRLPPSSKQPLSPGPQKTFQALQESSPQGPSPWPEESSRDQELAAVLECLTFEDVPENKAWPAHPLGFGSRTPDKEEFKQEEPKGAAWPTPILAESQADSPGVPGEPCAQSLGRGAAASGPGEDGSLLGSSEILEVKVAEGVPEPNPELQFICADCGVSFPQLSRLKAHQLRSHPAGRSFLCLCCGKSFGRSSILKLHMRTHTDERPHACHLCGHRFRQSSHLSKHLLTHSSEPAFLCAECGRGFQRRASLVQHLLAHAQDQKPPCAPESKAEAPPLTDVLCSHCGQSFQRRSSLKRHLRIHARDKDRRSSEGSGSRRRDSDRRPFVCSDCGKAFRRSEHLVAHRRVHTGERPFSCQACGRSFTQSSQLVSHQRVHTGEKPYACPQCGKRFVRRASLARHLLTHGGPRPHHCTQCGKSFGQTQDLARHQRSHTGEKPCRCSECGEGFSQSAHLARHQRIHTGEKPHACDTCGHRFRNSSNLARHRRSHTGERPYSCQTCGRSFRRNAHLRRHLATHAEPGQEQAEPPQECVECGKSFSRSCNLLRHLLVHTGARPYSCTQCGRSFSRNSHLLRHLRTHARETLY
With B6, the “Z score of condensed fraction” value is -0.1901.

B7: ZZZ3 (protein, UniProt Q8IYH5 1-903, looked up)
ZZ-type zinc …: MAASRSTRVTRSTVGLNGLDESFCGRTLRNRSIAHPEEISSNSQVRSRSPKKRPEPVPIQKGNNNGRTTDLKQQSTRESWVSPRKRGLSSSEKDNIERQAIENCERRQTEPVSPVLKRIKRCLRSEAPNSSEEDSPIKSDKESVEQRSTVVDNDADFQGTKRACRCLILDDCEKREIKKVNVSEEGPLNSAVVEEITGYLAVNGVDDSDSAVINCDDCQPDGNTKQNSIGSYVLQEKSVAENGDTDTQTSMFLDSRKEDSYIDHKVPCTDSQVQVKLEDHKIVTACLPVEHVNQLTTEPATGPFSETQSSLRDSEEEVDVVGDSSASKEQCKENTNNELDTSLESMPASGEPEPSPVLDCVSAQMMSLSEPQEHRYTLRTSPRRAAPTRGSPTKNSSPYRENGQFEENNLSPNETNATVSDNVSQSPTNPGEISQNEKGICCDSQNNGSEGVSKPPSEARLNIGHLPSAKESASQHITEEEDDDPDVYYFESDHVALKHNKDYQRLLQTIAVLEAQRSQAVQDLESLGRHQREALKNPIGFVEKLQKKADIGLPYPQRVVQLPEIVWDQYTHSLGNFEREFKNRKRHTRRVKLVFDKVGLPARPKSPLDPKKDGESLSYSMLPLSDGPEGSSSRPQMIRGRLCDDTKPETFNQLWTVEEQKKLEQLLIKYPPEEVESRRWQKIADELGNRTAKQVASRVQKYFIKLTKAGIPVPGRTPNLYIYSKKSSTSRRQHPLNKHLFKPSTFMTSHEPPVYMDEDDDRSCFHSHMNTAVEDASDDESIPIMYRNLPEYKELLQFKKLKKQKLQQMQAESGFVQHVGFKCDNCGIEPIQGVRWHCQDCPPEMSLDFCDSCSDCLHETDIHKEDHQLEPIYRSETFLDRDYCVSQGTSYNYLDPNYFPANR
With B7, the “Z score of condensed fraction” value is listed as -0.9122.

B8: CEBPE (protein, UniProt Q15744 1-281, looked up)
CCAAT/enhancer-binding …: MSHGTYYECEPRGGQQPLEFSGGRAGPGELGDMCEHEASIDLSAYIESGEEQLLSDLFAVKPAPEARGLKGPGTPAFPHYLPPDPRPFAYPPHTFGPDRKALGPGIYSSPGSYDPRAVAVKEEPRGPEGSRAASRGSYNPLQYQVAHCGQTAMHLPPTLAAPGQPLRVLKAPLATAAPPCSPLLKAPSPAGPLHKGKKAVNKDSLEYRLRRERNNIAVRKSRDKAKRRILETQQKVLEYMAENERLRSRVEQLTQELDTLRNLFRQIPEAANLIKGVGGCS
With B8, the “Z score of condensed fraction” value is given as -0.2607.

These data come from article PMC11574045, “A cofactor-induced repressive type of transcription factor condensation can be induced by synthetic peptides to suppress tumorigenesis” (The EMBO Journal, 2024).
